{"source": "paper PMC5957528", "about": "“Boosting ATM activity alleviates aging and extends lifespan in a mouse model of progeria” (eLife, 2018)", "key": {"MDM2": {"biological_target": "MDM2 (UniProt Q00987)", "experiment": "anti-Flag co-IP, MDM2 immunoblot", "settings": "reference: Flag-SIRT6 wild type; sites S112"}, "SIRT6": {"biological_target": "SIRT6 (UniProt Q8N6T7)", "experiment": "anti-HA co-IP, ATM immunoblot", "settings": "reference: Flag-ATM wild type; sites S1981"}, "His-SIRT6": {"biological_target": "T1, His-SIRT6 (human, UniProt Q8N6T7 1-355)", "T1 construct": "SIRT6, human; also called 6 × His tagged SIRT6; purified His-SIRT6; source: bacterially expressed, purified", "T1 sequence (Q8N6T7 whole entry, the tested form may be a part)": "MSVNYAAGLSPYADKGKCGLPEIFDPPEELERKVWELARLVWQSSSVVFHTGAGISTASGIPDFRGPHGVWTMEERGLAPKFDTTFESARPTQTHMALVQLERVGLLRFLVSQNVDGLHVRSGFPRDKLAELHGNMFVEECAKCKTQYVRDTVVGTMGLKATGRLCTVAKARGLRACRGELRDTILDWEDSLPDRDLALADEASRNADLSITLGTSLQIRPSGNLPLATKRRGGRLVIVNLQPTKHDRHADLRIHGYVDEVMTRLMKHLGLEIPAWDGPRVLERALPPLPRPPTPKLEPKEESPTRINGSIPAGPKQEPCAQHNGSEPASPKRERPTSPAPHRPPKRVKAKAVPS", "experiment": "pull-down; GST pull-down: bacterially expressed 6 × His SIRT6 incubated separately with GST-ATM fragments in 150 mM NaCl, 20 mM Tris-HCl pH 7.5, 5 mM MgCl2, 0.2 mM EDTA, 10% glycerol, 0.2% NP-40; Glutathione Sepharose; washed with TEN buffer (300 mM NaCl)", "settings": "both partners purified"}}}
{"molecule": "SIRT6 (from UniProt Q8N6T7) Flag-SIRT6 S112A", "values": [{"measurement": "binding against the reference", "setting": "MDM2", "result": "stronger"}]}
{"molecule": "ATM (from UniProt Q13315) Flag-ATM S1981A", "values": [{"measurement": "binding against the reference", "setting": "SIRT6", "result": "lost"}]}
{"molecule": "GST-ATM-4 (residues 770–1102) (domain or fragment, human, UniProt Q13315 770-1102, looked up, source: recombinant GST fusion (pGEX4T-3 vector)) EFRIGSLRNMMQLCTRCLSNCTKKSPNKIASGFFLRLLTSKLMNDIADICKSLASFIKKPFDRGEVESMEDDTNGNLMEVEDQSSMNLFNDYPDSSVSDANEPGESQSTIGAINPLAEEYLSKQDLLFLDMLKFLCLCVTTAQTNTVSFRAADIRRKLLMLIDSSTLEPTKSLHLHMYLMLLKELPGEEYPLPMEDVLELLKPLSNVCSLYRRDQDVCKTILNHVLHVVKNLGQSNMDSENTRDAQGQFLTVIGAFWHLTKERKYIFSVRMALVNCLKTLLEADPYSKWAILNVMGKDFPVNEVFTQFLADNHHQVRMLAAESINRLFQDTKG", "values": [{"measurement": "binding result", "setting": "His-SIRT6", "result": "binds"}]}
